*1 amine or outer side, *2 acyl side, *3 side chain or, on linkers, in order; H or OH if unused. Where no end group is shown, it is not given here. [ ]: non-standard residue; d: D form. Phe(4-NHSO2CH3) = 4-(methylsulfonamido)phenylalanine, CS(=O)(=O)Nc1ccc(C[C@H](N[*:1])C(=O)[*:2])cc1; Phe(4-guanidino) = N=C(N)Nc1ccc(C[C@H](N)C(=O)O)cc1; pY = N[C@@H](Cc1ccc(OP(=O)(O)O)cc1)C(=O)O; Phe(4-Cl) = N[C@@H](Cc1ccc(Cl)cc1)C(=O)O; Phe(4-F) = N[C@@H](Cc1ccc(F)cc1)C(=O)O; Phe(4-I) = N[C@@H](Cc1ccc(I)cc1)C(=O)O; Phe(NH2) = aminophenylalanine; Phe(NO2) = nitrophenylalanine; Phe(CN) = cyanophenylalanine; Phe(N3) = azidophenylalanine; βAla = NCCC(=O)O
B1: ATP-βAla-pTyr-Glu-Glu-Ile-OH (1) (peptide)
peptide: {ATP}-[βAla][pY]EEI-OH
notes: also called compound 1; ATP-phosphopeptide conjugate 1
B2: 3-phenylpyrazolopyrimidine-peptide conjugate 43 (3-phenylpyrazolopyrimidine-YIYGSFK) (peptide)
peptide: YIYGSFK
modifications: not fully specified (N-terminus); also: short linker between the label and the N-terminus not given here

Molecular target: Src tyrosine kinase
Experiment: steady-state kinetics, radioactive kinase assay; ATP-binding site of Src

For B1, the Ki was 1.7 µM.

Molecular target: Src tyrosine kinase
Experiment: cell-based or functional assay

In the case of Ac-CIYK[Phe(NO2)]Y [Ac-CIYKF(NO2)Y (62)], the “fold higher inhibitory potency versus 40” value is reported as about 750 fold.

With YIYGSFK(3‑phenylpyrazolopyrimidine) [3-phenylpyrazolopyrimidine-peptide conjugate 53] the “fold reduction of inhibitory potency compared to 43” value was 11 fold.

In the case of Cys-Ile-Tyr (not fully specified (N-terminus); also: short linker to N-terminus) [3-phenylpyrazolopyrimidine-peptide conjugate 45], the “fold reduction of inhibitory activity compared to 42” value is reported as about 145 fold.

{3‑phenylpyrazolopyrimidine}-GCIYKYY [3-phenylpyrazolopyrimidine-peptide conjugate 54] was tested, and the “fold reduction of inhibitory potency compared to 42” value was 21 fold.

For Ac-YIYGSFK [Ac-YIYGSFK (41)], the “IC50, inhibition of polyE4Y phosphorylation (radioactive kinase assay)” value was 570 µM.

In the case of B2, the “IC50, inhibition of polyE4Y phosphorylation by active Src” value is reported as 2.7 µM.

Molecular target: Src tyrosine kinase
Experiment: cell-based or functional assay
Remark: another data set of the same source

Point of comparison: Ac-CIYK[Phe(4-F)]Y [Ac-CIYKF(4-F)Y (74)], “IC50, inhibitory potency (Src kinase assay, polyE4Y phosphorylation)” value 26 µM. Against it:
- Ac-CIYK[Phe(NO2)]Y [Ac-CIYKF(NO2)Y (62)] — 49-fold lower, 0.53 µM
- Ac-CIYKY[Phe(NO2)] [Ac-CIYKYF(NO2) (66)] — 2.4-fold lower, 10.8 µM
- Ac-CIYK[Phe(4-NHSO2CH3)]Y [Ac-CIYKF(4-NHSO2CH3)Y (80)] — higher, > 100 µM
- Ac-CIYK[Phe(NH2)]Y [Ac-CIYKF(NH2)Y (63)] — 3.6-fold higher, 93 µM
- Ac-CIYK[Phe(4-guanidino)]Y [Ac-CIYKF(4-Guanidine)Y (73)] — higher, > 700 µM
- CIYK[Phe(NO2)]Y [CIYKF(NO2)Y (77)] — 8.7-fold lower, 3 µM
- Ac-CI[Phe(NH2)]KYY [Ac-CIF(NH2)KYY (67)] — 29-fold higher, 760 µM
- YI[Phe(NO2)]GSFK [YIF(NO2)GSFK (86)] — higher, > 100 µM
- Ac-CIYK[Phe(CN)]Y [Ac-CIYKF(CN)Y (78)] — 4.3-fold lower, 6 µM
- Ac-CIYK[Phe(4-Cl)]Y [Ac-CIYKF(4-C1)Y (75)] — 3.6-fold lower, 7.3 µM
- Ac-CIYK[Phe(N3)]Y [Ac-CIYKF(N3)Y (79)] — 13-fold lower, 2 µM
- Ac-CIYK[Phe(4-I)]Y [Ac-CIYKF(4-I)Y (76)] — 33-fold lower, 0.78 µM
- Ac-CI[Phe(NO2)]KYY [Ac-CIF(NO2)KYY (64)] — 17-fold lower, 1.5 µM
- Ac-YI[Phe(NO2)]GSFK [Ac-YIF(NO2)GSFK (87)] — higher, > 100 µM
- Ac-CIYKY[Phe(NH2)] [Ac-CIYKYF(NH2) (68)] — higher, > 700 µM
- YIYGSFK [YIYGSFK (85)] — higher, > 100 µM
- Ac-CIYKFY [Ac-CIYKFY (61)] — higher, > 700 µM

Molecular target: Src tyrosine kinase
Experiment: cell-based or functional assay
Remark: another data set of the same source

Point of comparison: Ac-CIYK[Phe(NO2)][Phe(NO2)] [Ac-CIYKF(NO2)F(NO2) (70)], “IC50, inhibitory potency (Src kinase assay, polyE4Y phosphorylation)” value 5.6 µM. Against it:
- Ac-CI[Phe(NO2)]K[Phe(NO2)]Y [Ac-CIF(NO2)KF(NO2)Y (69)] — 4-fold lower, 1.4 µM
- Ac-CIYKY [Ac-CIYKY (82)] — higher, > 100 µM
- Ac-CI[Phe(NO2)]KY[Phe(NO2)] [Ac-CIF(NO2)KYF(NO2) (71)] — 1.6-fold lower, 3.4 µM
- Ac-CIYK[Phe(NO2)]YF [Ac-CIYKF(NO2)YF (65)] — 5.6-fold lower, 1 µM
- IYKYY [IYKYY (81)] — 38-fold higher, 211 µM
- Ac-CYK[Phe(4-Cl)]Y [Ac-CYKF(4-C1)Y (83)] — 7-fold higher, 39 µM
- Ac-CYK[pY]Y [Ac-CYKpYY (84)] — higher, > 100 µM
